Test results as given in patent US20260234272A1 (SCHOLAR ROCK, published 2026).
Numbering of substitutions follows the chain as printed. Values belong to the binder of their own block, whether it stands above or below them.

Experiments:
[1] = molecular target: T1, human LTBP1-proTGFβ1 complex (human, UniProt Q14766 347-1721; P01137 30-390); experiment: Octet binning: 500 nM complex pre-incubated with 1 µM first antibody SR-AB13; competitor: second antibody SR-AB2 on AHC tip
T1 construct: Complex of presenting molecule LTBP1 disulfide-linked to a proTGFβ1 homodimer; also called proTGFβ1:LTBP1 complex; LTBP1-TGFβ1 complex
T1 sequence (Q14766 347-1721 limits assumed, chain 1 of 2): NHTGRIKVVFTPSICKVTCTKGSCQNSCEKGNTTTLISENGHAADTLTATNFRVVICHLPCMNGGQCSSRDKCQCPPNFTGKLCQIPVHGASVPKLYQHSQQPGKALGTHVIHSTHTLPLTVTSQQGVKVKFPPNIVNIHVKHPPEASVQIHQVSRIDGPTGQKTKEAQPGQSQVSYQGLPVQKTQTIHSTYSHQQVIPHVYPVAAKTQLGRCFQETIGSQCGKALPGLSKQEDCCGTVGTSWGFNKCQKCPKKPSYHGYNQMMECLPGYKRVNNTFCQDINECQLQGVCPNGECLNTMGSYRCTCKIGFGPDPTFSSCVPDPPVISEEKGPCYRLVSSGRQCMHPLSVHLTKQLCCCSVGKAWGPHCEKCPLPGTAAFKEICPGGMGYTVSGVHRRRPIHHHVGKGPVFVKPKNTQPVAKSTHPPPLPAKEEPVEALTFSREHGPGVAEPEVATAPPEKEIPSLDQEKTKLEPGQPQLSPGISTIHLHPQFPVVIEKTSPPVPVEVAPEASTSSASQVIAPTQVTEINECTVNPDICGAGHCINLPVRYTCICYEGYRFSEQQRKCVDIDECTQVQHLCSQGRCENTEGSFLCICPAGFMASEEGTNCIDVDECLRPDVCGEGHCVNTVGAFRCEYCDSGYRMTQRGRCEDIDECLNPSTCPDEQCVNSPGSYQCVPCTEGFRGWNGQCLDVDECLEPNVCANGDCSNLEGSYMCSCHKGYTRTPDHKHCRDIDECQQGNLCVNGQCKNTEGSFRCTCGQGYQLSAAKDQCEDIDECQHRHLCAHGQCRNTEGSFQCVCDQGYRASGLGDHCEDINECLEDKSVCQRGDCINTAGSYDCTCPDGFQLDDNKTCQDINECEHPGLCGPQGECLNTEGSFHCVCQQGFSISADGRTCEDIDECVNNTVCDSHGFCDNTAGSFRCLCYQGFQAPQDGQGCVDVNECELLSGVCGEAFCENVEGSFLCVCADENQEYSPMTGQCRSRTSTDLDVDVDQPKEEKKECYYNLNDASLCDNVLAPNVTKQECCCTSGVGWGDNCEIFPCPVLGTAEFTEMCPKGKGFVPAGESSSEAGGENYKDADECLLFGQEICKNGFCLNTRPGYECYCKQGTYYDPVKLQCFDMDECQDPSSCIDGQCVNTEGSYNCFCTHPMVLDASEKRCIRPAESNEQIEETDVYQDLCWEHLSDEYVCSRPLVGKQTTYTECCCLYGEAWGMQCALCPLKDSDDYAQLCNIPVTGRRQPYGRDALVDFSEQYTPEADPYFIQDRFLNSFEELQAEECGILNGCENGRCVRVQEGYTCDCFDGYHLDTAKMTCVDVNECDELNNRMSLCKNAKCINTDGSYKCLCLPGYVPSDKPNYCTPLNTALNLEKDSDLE
T1 sequence (P01137 30-390 limits assumed, chain 2 of 2): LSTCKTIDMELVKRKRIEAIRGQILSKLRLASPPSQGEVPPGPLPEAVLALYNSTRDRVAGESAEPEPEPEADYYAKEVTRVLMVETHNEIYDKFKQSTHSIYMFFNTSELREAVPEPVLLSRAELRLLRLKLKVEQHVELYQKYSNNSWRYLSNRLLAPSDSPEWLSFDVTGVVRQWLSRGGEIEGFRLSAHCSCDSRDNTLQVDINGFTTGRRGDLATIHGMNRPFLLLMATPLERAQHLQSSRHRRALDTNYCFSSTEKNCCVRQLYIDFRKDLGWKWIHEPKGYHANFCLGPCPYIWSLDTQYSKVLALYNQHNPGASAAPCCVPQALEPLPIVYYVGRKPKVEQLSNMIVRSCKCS

[2] = molecular target: T1, human LTBP1-proTGFβ1 complex; experiment: Octet binning: 500 nM complex pre-incubated with 1 µM first antibody SR-AB13; competitor: second antibody SR-AB1 on AHC tip
[3] = molecular target: T1, human LTBP1-proTGFβ1 complex; experiment: Octet binning: 500 nM complex pre-incubated with 1 µM first antibody SR-AB13; competitor: second antibody SR-AB10 on AHC tip
[4] = molecular target: T1, human LTBP1-proTGFβ1 complex; experiment: Octet binning: 500 nM complex pre-incubated with 1 µM first antibody SR-AB13; competitor: second antibody SR-AB13 on AHC tip
[5] = molecular target: T1, human LTBP1-proTGFβ1 complex; experiment: Octet binning: 500 nM complex pre-incubated with 1 µM first antibody SR-AB10; competitor: second antibody SR-AB13 on AHC tip
Method: (§1) 500 nM of human LTBP1-proTGFβ1 complex was pre-incubated with 1 μM of each test antibody. After an overnight incubation, the LTBP1-[…] first antibody was tested for binding to a second antibody which was immobilized to an Anti-Human IgG Fc Capture (AHC) sensor tip at 67 nM.
(§2) Binding of the complex to a specific second antibody was normalized to the uninhibited interaction, that is the complex in the presence of HuNeg control antibody. Normalized responses less than 70% or 0.7 of the uninhibited interaction were considered antibodies that cross block.

[6] = molecular target: T1, human LTBP1-proTGFβ1 complex; experiment: Octet binning: 500 nM complex pre-incubated with 1 µM first antibody SR-AB10; competitor: second antibody SR-AB10 on AHC tip
Method: as §1, §2

[7] = molecular target: T1, human LTBP1-proTGFβ1 complex; experiment: Octet binning: 500 nM complex pre-incubated with 1 µM first antibody SR-AB10; competitor: second antibody SR-AB2 on AHC tip
Method: as §1, §2

[8] = molecular target: T2, GARP-proTGFβ1 complex (human, UniProt Q14392 20-627; P01137 30-390, limits assumed); experiment: Octet, yeast expressed IgG1Agly; concentration not shown
T2 construct: In the cell assays GARP was overexpressed from a human plasmid (whole, on cells); also called GARP-TGFβ1
T2 sequence (Q14392 20-627 limits assumed, chain 1 of 2): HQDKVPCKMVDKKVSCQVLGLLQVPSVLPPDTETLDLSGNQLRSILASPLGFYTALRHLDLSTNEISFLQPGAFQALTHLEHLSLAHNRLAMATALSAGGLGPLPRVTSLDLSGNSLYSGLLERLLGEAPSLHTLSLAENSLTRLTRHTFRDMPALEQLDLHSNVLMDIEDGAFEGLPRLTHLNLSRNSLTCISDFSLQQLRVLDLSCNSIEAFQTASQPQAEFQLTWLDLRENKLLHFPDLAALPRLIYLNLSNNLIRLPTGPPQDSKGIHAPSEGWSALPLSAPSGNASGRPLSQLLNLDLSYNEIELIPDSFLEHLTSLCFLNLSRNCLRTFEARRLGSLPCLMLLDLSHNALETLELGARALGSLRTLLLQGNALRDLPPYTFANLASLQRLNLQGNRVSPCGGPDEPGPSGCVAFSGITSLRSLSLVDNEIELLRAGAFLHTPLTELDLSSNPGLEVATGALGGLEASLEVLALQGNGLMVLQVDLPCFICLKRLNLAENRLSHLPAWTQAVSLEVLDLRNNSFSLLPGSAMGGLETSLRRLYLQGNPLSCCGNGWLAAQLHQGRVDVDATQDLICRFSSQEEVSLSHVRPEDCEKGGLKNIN
T2 sequence (P01137 30-390 limits assumed, chain 2 of 2): as the sequence (P01137 30-390 limits assumed, chain 2 of 2) above

[9] = molecular target: T1, human LTBP1-proTGFβ1 complex; experiment: Octet binning: 500 nM complex pre-incubated with 1 µM first antibody SR-AB10; competitor: second antibody SR-AB1 on AHC tip
Method: as §1, §2

[10] = molecular target: T1, human LTBP1-proTGFβ1 complex; experiment: Octet binning: 500 nM complex pre-incubated with 1 µM first antibody SR-AB2; competitor: second antibody SR-AB1 on AHC tip
Method: as §1, §2

[11] = molecular target: T1, human LTBP1-proTGFβ1 complex; experiment: Octet binning: 500 nM complex pre-incubated with 1 µM first antibody SR-AB2; competitor: second antibody SR-AB10 on AHC tip
Method: as §1, §2

[12] = molecular target: T1, human LTBP1-proTGFβ1 complex; experiment: Octet binning: 500 nM complex pre-incubated with 1 µM first antibody SR-AB2; competitor: second antibody SR-AB13 on AHC tip
Method: as §1, §2

[13] = molecular target: T1, human LTBP1-proTGFβ1 complex; experiment: Octet binning: 500 nM complex pre-incubated with 1 µM first antibody SR-AB2; competitor: second antibody SR-AB2 on AHC tip
Method: as §1, §2

normalized response (relative to HuNeg control) [1]: 1.29 fraction of uninhibited interaction
normalized response (relative to HuNeg control) [2]: 1.08 fraction of uninhibited interaction
normalized response (relative to HuNeg control) [3]: 1.38 fraction of uninhibited interaction
normalized response (relative to HuNeg control) [4]: 0.47 fraction of uninhibited interaction
B1: SR-AB13 (antibody, V domains shown)
VH: QLQLQESGPGLVKPSETLSLTCTVSGGSISSSSYYWGWIRQPPGKGLEWIGSISYSGSTYYNPSLKSRVTISVDTSKNQFSLKLSSVTAADTAVYYCARDPSYDSIAGMDVWGQGTTVTVSS
VL: DIQLTQSPSSLSASVGDRVTITCRASQSISSYLNWYQQKPGKAPKLLIYAASNLQSGVPSRFSGSGSGTDFTLTISSLQPEDFATYYCQQSFDFPFTFGGGTKVEIK

normalized response (relative to HuNeg control) [5]: 1.27 fraction of uninhibited interaction
normalized response (relative to HuNeg control) [6]: 0.51 fraction of uninhibited interaction
normalized response (relative to HuNeg control) [7]: 1.53 fraction of uninhibited interaction
binding result [8]: no binding
normalized response (relative to HuNeg control) [9]: 0.82 fraction of uninhibited interaction
B2: SR-AB10 (antibody, V domains shown)
VH: QLQLQESGGGVVQPGRSLRLSCAASGFTFNNYPIHWVRQAPGKGLEWVAVMSYDGINKYYADSVKGRFTISRDNSKNTLYLQMNSLRAEDTAVYYCARPRIAARRGGFDYWGQGTLVTVSS
VL: NFMLTQPHSVSESPGKTVTISCTRSSGNIDNNYVQWYQQRPGSSPTTVIYEDNQRPSGVPDRFSGSIDSSSNSASLTISGLKTEDEADYYCQSYDSDNQGVVFGGGTKLTVL

normalized response (relative to HuNeg control) [10]: 1.11 fraction of uninhibited interaction
normalized response (relative to HuNeg control) [11]: 1.54 fraction of uninhibited interaction
normalized response (relative to HuNeg control) [12]: 1.31 fraction of uninhibited interaction
normalized response (relative to HuNeg control) [13]: 0.47 fraction of uninhibited interaction
B3: SR-AB2 (antibody, V domains shown)
VH: QVQLVQSGAEVKKPGASVKVSCKASGYTFTSYGISWVRQAPGQGLEWMGWISAYNGNTNYAQKLQGRVTMTTDTSTSTAYMELRSLRSDDTAVYYCARAPLGNFDSWGQGTMVTVSS
VL: B2 VL with N28S, D30A, N31S, D97S, Q99H, G100P
